Key:
[1] = target: T1, human P-cadherin on the surface of cells (human, UniProt P22223 108-829); assay: epitope competition on A431 cells; competitor: biotinylated 129-1c4 IgG at 1x KD, DELFIA
T1 construct: whole, on cells; also called native P-cadherin on the surface of A431 cells; SW480 cells stably expressing P-cadherin

[2] = target: T1, human P-cadherin on the surface of cells; assay: cell-based or functional assay
[3] = target: T1, human P-cadherin on the surface of cells; assay: cell-based or functional assay; remark: listed apart in the source
[4] = target: T1, human P-cadherin on the surface of cells; assay: cell-based or functional assay; remark: listed apart in the source
[5] = target: T2, Recombinant human P-cadherin Fc (R&D Systems 861-PC-100) (human, UniProt P22223 108-654); assay: ELISA on coated antigen, relative KD
T2 construct: also called recombinant human P-cadherin/Fc fusion protein; hCad/Fc; not shown: Fc part of the bought fusion protein

[6] = target: T2, Recombinant human P-cadherin Fc (R&D …); assay: ELISA; KD on E-cadherin over KD on P-cadherin
[7] = target: T1, human P-cadherin on the surface of cells; assay: cell-based or functional assay; remark: listed apart in the source

B1: scFv variant of 129-1c4 with VH CDR3 SEQ ID NO: 37 and VL CDR3 SEQ ID NO: 40 (scFv, V domains shown)
VH: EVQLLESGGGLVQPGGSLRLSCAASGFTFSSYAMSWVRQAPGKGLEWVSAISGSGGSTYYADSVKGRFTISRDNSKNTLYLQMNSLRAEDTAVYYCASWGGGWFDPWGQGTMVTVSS
VL: QSALTQPASVSGSPGQSITISCTGTSNDVGAYNYVSWYQQHPGKAPKLILSEVNKRPSGVSNRFSGSKSGNTASLSISGLQAEDEADYYCSSFTSGLPWVLFGGGTKLTVL
notes: His-tagged purified scFv; also called 37 / 40
B1 gave an IC50 [1] of 2.49 nM.

B2: scFv variant of 129-1c4 with VH CDR3 SEQ ID NO: 37 and VL CDR3 SEQ ID NO: 43 (scFv, V domains shown)
VH: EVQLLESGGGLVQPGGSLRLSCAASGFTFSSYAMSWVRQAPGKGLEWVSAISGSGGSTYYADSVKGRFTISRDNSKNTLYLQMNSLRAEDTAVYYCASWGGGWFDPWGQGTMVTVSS
VL: QSALTQPASVSGSPGQSITISCTGTSNDVGAYNYVSWYQQHPGKAPKLILSEVNKRPSGVSNRFSGSKSGNTASLSISGLQAEDEADYYCTSYTMGSTFMLFGGGTKLTVL
notes: His-tagged purified scFv; also called 37 / 43
For B2, the IC50 [1] was 5.67 nM.

B3: scFv variant of 129-1c4 with VH CDR3 SEQ ID NO: 37 and VL CDR3 SEQ ID NO: 261 (scFv, V domains shown)
VH: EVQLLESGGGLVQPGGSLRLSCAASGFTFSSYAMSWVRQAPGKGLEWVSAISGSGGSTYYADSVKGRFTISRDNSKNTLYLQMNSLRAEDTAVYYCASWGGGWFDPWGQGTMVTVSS
VL: QSALTQPASVSGSPGQSITISCTGTSNDVGAYNYVSWYQQHPGKAPKLILSEVNKRPSGVSNRFSGSKSGNTASLSISGLQAEDEADYYCSSFTSQIPWALFGGGTKLTVL
notes: His-tagged purified scFv; also called 37 / 261
For B3, the IC50 [1] was 1.78 nM.

B4: scFv variant of 129-1c4 with VH CDR3 SEQ ID NO: 37 and VL CDR3 SEQ ID NO: 274 (scFv, V domains shown)
VH: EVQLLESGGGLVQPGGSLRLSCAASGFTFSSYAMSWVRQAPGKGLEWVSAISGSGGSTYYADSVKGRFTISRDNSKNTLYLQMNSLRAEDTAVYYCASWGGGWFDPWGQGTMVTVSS
VL: QSALTQPASVSGSPGQSITISCTGTSNDVGAYNYVSWYQQHPGKAPKLILSEVNKRPSGVSNRFSGSKSGNTASLSISGLQAEDEADYYCGAYSAGSTFMLFGGGTKLTVL
notes: His-tagged purified scFv; also called 37 / 274
In the case of B4, the IC50 [1] is reported as 8.73 nM.

B5: scFv variant of 129-1c4 with VH CDR3 SEQ ID NO: 37 and VL CDR3 SEQ ID NO: 277 (scFv, V domains shown)
VH: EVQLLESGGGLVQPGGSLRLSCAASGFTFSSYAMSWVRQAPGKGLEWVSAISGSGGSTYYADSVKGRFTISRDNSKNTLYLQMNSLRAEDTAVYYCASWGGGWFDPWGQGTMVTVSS
VL: QSALTQPASVSGSPGQSITISCTGTSNDVGAYNYVSWYQQHPGKAPKLILSEVNKRPSGVSNRFSGSKSGNTASLSISGLQAEDEADYYCSSFTSGDHWVLFGGGTKLTVL
notes: His-tagged purified scFv; also called 37 / 277
With B5 the IC50 [1] was 2.2 nM.

B6: scFv variant of 129-1c4 with VH CDR3 SEQ ID NO: 37 and VL CDR3 SEQ ID NO: 287 (scFv, V domains shown)
VH: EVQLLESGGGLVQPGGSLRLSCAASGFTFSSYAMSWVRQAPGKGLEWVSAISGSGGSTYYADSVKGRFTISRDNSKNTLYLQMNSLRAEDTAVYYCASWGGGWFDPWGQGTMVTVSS
VL: QSALTQPASVSGSPGQSITISCTGTSNDVGAYNYVSWYQQHPGKAPKLILSEVNKRPSGVSNRFSGSKSGNTASLSISGLQAEDEADYYCSSFTSGIKFTLFGGGTKLTVL
notes: His-tagged purified scFv; also called 37 / 287
For B6, the IC50 [1] was 10.5 nM.

B7: scFv variant of 129-1c4 with VH CDR3 SEQ ID NO: 37 and VL CDR3 SEQ ID NO: 288 (scFv, V domains shown)
VH: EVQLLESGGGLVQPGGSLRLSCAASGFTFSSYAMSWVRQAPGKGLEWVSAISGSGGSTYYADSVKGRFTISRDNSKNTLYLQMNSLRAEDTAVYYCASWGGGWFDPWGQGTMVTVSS
VL: QSALTQPASVSGSPGQSITISCTGTSNDVGAYNYVSWYQQHPGKAPKLILSEVNKRPSGVSNRFSGSKSGNTASLSISGLQAEDEADYYCSSFTSAIPWSLFGGGTKLTVL
notes: His-tagged purified scFv; also called 37 / 288
B7 showed an IC50 [1] of 6.67 nM.

B8: scFv variant of 129-1c4 with VH CDR3 SEQ ID NO: 37 and VL CDR3 SEQ ID NO: 295 (scFv, V domains shown)
VH: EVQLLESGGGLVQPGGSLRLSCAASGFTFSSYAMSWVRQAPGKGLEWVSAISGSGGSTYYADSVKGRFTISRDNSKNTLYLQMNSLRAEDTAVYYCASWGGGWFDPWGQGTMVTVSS
VL: QSALTQPASVSGSPGQSITISCTGTSNDVGAYNYVSWYQQHPGKAPKLILSEVNKRPSGVSNRFSGSKSGNTASLSISGLQAEDEADYYCSSFTSGKTFVLFGGGTKLTVL
notes: His-tagged purified scFv; also called 37 / 295
Binder B8 has an IC50 [1] of 0.8 nM.

B9: scFv variant of 129-1c4 with VH CDR3 SEQ ID NO: 37 and VL CDR3 SEQ ID NO: 297 (scFv, V domains shown)
VH: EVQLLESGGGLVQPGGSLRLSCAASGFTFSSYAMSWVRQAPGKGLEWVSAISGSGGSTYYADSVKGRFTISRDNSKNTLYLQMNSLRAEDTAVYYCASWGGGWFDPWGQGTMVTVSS
VL: QSALTQPASVSGSPGQSITISCTGTSNDVGAYNYVSWYQQHPGKAPKLILSEVNKRPSGVSNRFSGSKSGNTASLSISGLQAEDEADYYCSSFTSSAHFVLFGGGTKLTVL
notes: His-tagged purified scFv; also called 37 / 297
For B9, the IC50 [1] was 2.49 nM.

B10: scFv variant of 129-1c4 with VH CDR3 SEQ ID NO: 37 and VL CDR3 SEQ ID NO: 299 (scFv, V domains shown)
VH: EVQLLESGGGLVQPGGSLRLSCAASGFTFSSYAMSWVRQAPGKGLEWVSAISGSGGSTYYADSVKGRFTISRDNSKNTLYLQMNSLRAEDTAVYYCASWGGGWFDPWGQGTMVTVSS
VL: QSALTQPASVSGSPGQSITISCTGTSNDVGAYNYVSWYQQHPGKAPKLILSEVNKRPSGVSNRFSGSKSGNTASLSISGLQAEDEADYYCSSFTSDRAFNLFGGGTKLTVL
notes: His-tagged purified scFv; also called 37 / 299
B10 gave an IC50 [1] of 1.97 nM.

B11: scFv variant of 129-1c4 with VH CDR3 SEQ ID NO: 37 and VL CDR3 SEQ ID NO: 303 (scFv, V domains shown)
VH: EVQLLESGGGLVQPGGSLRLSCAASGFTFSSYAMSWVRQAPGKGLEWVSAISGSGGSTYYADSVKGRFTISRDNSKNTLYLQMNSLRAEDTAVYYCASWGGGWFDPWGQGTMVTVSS
VL: QSALTQPASVSGSPGQSITISCTGTSNDVGAYNYVSWYQQHPGKAPKLILSEVNKRPSGVSNRFSGSKSGNTASLSISGLQAEDEADYYCSSFTSGRAFNLFGGGTKLTVL
notes: His-tagged purified scFv; also called 37 / 303
B11 was tested, and the IC50 [1] was 1.47 nM.

B12: scFv variant of 129-1c4 with VH CDR3 SEQ ID NO: 37 and VL CDR3 SEQ ID NO: 304 (scFv, V domains shown)
VH: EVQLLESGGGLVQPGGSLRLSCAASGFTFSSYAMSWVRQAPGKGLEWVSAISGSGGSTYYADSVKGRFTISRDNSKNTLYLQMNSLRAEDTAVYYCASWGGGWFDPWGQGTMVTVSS
VL: QSALTQPASVSGSPGQSITISCTGTSNDVGAYNYVSWYQQHPGKAPKLILSEVNKRPSGVSNRFSGSKSGNTASLSISGLQAEDEADYYCSSFTSGPVFNLFGGGTKLTVL
notes: His-tagged purified scFv; also called 37 / 304
B12 gave an IC50 [1] of 1.1 nM.

B13: scFv variant of 129-1c4 with VH CDR3 SEQ ID NO: 37 and VL CDR3 SEQ ID NO: 305 (scFv, V domains shown)
VH: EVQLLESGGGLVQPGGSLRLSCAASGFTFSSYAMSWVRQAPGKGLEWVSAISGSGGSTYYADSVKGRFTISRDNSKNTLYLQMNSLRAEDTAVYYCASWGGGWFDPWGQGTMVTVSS
VL: QSALTQPASVSGSPGQSITISCTGTSNDVGAYNYVSWYQQHPGKAPKLILSEVNKRPSGVSNRFSGSKSGNTASLSISGLQAEDEADYYCSSFTSGQQWVLFGGGTKLTVL
notes: His-tagged purified scFv; also called 37 / 305
B13 showed an IC50 [1] of 2.19 nM.

B14: scFv variant of 129-1c4 with VH CDR3 SEQ ID NO: 165 and VL CDR3 SEQ ID NO: 47 (scFv, V domains shown)
VH: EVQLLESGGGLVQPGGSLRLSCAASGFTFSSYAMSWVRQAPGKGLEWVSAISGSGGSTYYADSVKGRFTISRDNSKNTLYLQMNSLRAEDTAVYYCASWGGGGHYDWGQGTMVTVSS
VL: QSALTQPASVSGSPGQSITISCTGTSNDVGAYNYVSWYQQHPGKAPKLILSEVNKRPSGVSNRFSGSKSGNTASLSISGLQAEDEADYYCSSFTSGSTFMLFGGGTKLTVL
notes: His-tagged purified scFv; also called 165 / 47
Binder B14 has an IC50 [1] of 5.11 nM.

B15: scFv variant of 129-1c4 with VH CDR3 SEQ ID NO: 195 and VL CDR3 SEQ ID NO: 47 (scFv, V domains shown)
VH: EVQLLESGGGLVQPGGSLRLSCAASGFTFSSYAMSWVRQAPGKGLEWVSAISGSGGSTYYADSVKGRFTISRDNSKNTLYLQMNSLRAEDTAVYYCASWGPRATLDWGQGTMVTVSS
VL: QSALTQPASVSGSPGQSITISCTGTSNDVGAYNYVSWYQQHPGKAPKLILSEVNKRPSGVSNRFSGSKSGNTASLSISGLQAEDEADYYCSSFTSGSTFMLFGGGTKLTVL
notes: His-tagged purified scFv; also called 195 / 47
B15 showed an IC50 [1] of 1.29 nM.

B16: 196-h02 (antibody, V domains shown)
VH: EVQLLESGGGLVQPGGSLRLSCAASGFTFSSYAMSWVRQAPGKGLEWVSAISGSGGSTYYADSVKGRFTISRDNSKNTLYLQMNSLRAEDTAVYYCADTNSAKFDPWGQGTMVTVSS
VL: QSALTQPASVSGSPGQSITISCTGTSNDVGAYNYVSWYQQHPGKAPKLILSEVNKRPSGVSNRFSGSKSGNTASLSISGLQAEDEADYYCTSYTMGSTFMLFGGGTKLTVL
notes: Tested as IgG converted from scFv; also called 196-h02 IgG
With B16 the “A431 Adhesion Assay Mean IC50 (nM) (n = 3)” value [2] was 0.148 nM, the “SW480 Aggregation Assay Mean IC50” value [3] was 3.2 nM and the “SW480 Spheroid Disruption Assay, Fold Increased Disruption vs Control at 5 nM” value [4] was 10 fold. The Kd [5] was 0.102 nM and the “KD(E)/KD(P)” value [6] was 326.

B17: 196-g03 (antibody, V domains shown)
VH: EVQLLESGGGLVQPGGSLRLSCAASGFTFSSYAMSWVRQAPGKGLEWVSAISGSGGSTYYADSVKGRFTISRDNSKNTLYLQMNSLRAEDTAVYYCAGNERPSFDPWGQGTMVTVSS
VL: QSALTQPASVSGSPGQSITISCTGTSNDVGAYNYVSWYQQHPGKAPKLILSEVNKRPSGVSNRFSGSKSGNTASLSISGLQAEDEADYYCTSYTMGSTFMLFGGGTKLTVL
In the case of B17, the “A431 Adhesion Assay Mean IC50 (nM) (n = 3)” value [2] is reported as 0.149 nM and the “A431 Adhesion Assay Mean IC50 (nM) (n = 2)” value [7] is reported as 0.39 nM.

B18: 200-h06 (antibody, V domains shown)
VH: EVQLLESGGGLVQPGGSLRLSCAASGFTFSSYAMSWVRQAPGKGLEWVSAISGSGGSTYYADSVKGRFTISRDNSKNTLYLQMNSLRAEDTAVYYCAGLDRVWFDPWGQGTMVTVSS
VL: QSALTQPASVSGSPGQSITISCTGTSNDVGAYNYVSWYQQHPGKAPKLILSEVNKRPSGVSNRFSGSKSGNTASLSISGLQAEDEADYYCTSYRMDSTFMLFGGGTKLTVL
In the case of B18, the “A431 Adhesion Assay Mean IC50 (nM) (n = 3)” value [2] is reported as 0.168 nM and the “A431 Adhesion Assay Mean IC50 (nM) (n = 2)” value [7] is reported as 0.63 nM.

B19: 194-e06 (antibody, V domains shown)
VH: not shown
VL: QSALTQPASVSGSPGQSITISCTGTSNDVGAYNYVSWYQQHPGKAPKLILSEVNKRPSGVSNRFSGSKSGNTASLSISGLQAEDEADYYCSSFTSGLPWVLFGGGTKLTVL
With B19 the “A431 Adhesion Assay Mean IC50 (nM) (n = 3)” value [2] was 0.162 nM, the “A431 Adhesion Assay Mean IC50 (nM) (n = 2)” value [7] was 0.46 nM and the “SW480 Aggregation Assay Mean IC50” value [3] was 0.7 nM.

B20: 194-b09 (antibody, V domains shown)
VH: not shown
VL: QSALTQPASVSGSPGQSITISCTGTSNDVGAYNYVSWYQQHPGKAPKLILSEVNKRPSGVSNRFSGSKSGNTASLSISGLQAEDEADYYCSSFTSGLPWVVFGGGTKLTVL
With B20 the “A431 Adhesion Assay Mean IC50 (nM) (n = 3)” value [2] was 0.229 nM and the “A431 Adhesion Assay Mean IC50 (nM) (n = 2)” value [7] was 2.1 nM.

B21: 194-g09 (antibody, V domains shown)
VH: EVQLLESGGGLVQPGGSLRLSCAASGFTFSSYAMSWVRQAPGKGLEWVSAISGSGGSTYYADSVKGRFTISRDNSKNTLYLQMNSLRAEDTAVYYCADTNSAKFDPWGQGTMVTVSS
VL: QSALTQPASVSGSPGQSITISCTGTSNDVGAYNYVSWYQRHPGKAPKLILSEVNKRPSGVSNRFSGSKSGNTASLSISGLQAEDEAEYYCSSYTMGSTFMLFGGGTKLTVL
B21 was tested, and the “A431 Adhesion Assay Mean IC50 (nM) (n = 3)” value [2] was 0.158 nM and the “A431 Adhesion Assay Mean IC50 (nM) (n = 2)” value [7] was 0.73 nM.

B22: 195-e11 (antibody, V domains shown)
VH: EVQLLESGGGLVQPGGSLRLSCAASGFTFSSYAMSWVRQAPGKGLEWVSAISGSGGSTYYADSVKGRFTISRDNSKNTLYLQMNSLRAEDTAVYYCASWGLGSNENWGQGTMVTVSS
VL: QSALTQPASVSGSPGQSITISCTGTSNDVGAYNYVSWYQQHPGKAPKLILSEVNKRPSGVSNRFSGSKSGNTASLSISGLQAEDEADYYCSSFTSGIVFNLFGGGTKLTVL
In the case of B22, the “A431 Adhesion Assay Mean IC50 (nM) (n = 3)” value [2] is reported as 0.114 nM and the “A431 Adhesion Assay Mean IC50 (nM) (n = 2)” value [7] is reported as 0.97 nM.

— patent US20060240001A1 (AGOURON PHARMACEUTICALS, published 2006)
